Laboratory results as given in paper PMC5863373, “Characterization of association of human mitochondrial lysyl-tRNA synthetase with HIV-1 Pol and tRNA3^Lys” (BMC Biochemistry, 2018).

Experiments:
[1] = target: T1, HIV-1 integrase with a C-terminal His6 tag (HIV-1 (pNL4-3)); assay: AlphaScreen or HTRF; conditions: both partners purified
T1 construct: source: High Five insect cells (baculovirus), purified (Ni-NTA, Mono S); not shown: His6, C-terminal, kept

[2] = target: T2, human mitochondrial lysyl-tRNA synthetase with a C-terminal HA-tag (human, UniProt Q15046-2); assay: AlphaScreen or HTRF; conditions: both partners purified
T2 construct: also called mLysRS; mLysRS-HA; source: E. coli, purified as described [12]

B1: mLysRS derivative with a C-terminal deletion of 22 aminoacid residues, with a C-terminal HA-tag (domain or fragment)
chain: not shown
Question: B1 was tested. Which Kd [1] did it give?
Answer: 8.3 nM

B2: p38, scaffold protein of the multi-synthetase complex (AIMP2), His-tagged (natural protein, human, UniProt Q13155 1-320, looked up)
chain: MPMYQVKPYHGGGAPLRVELPTCMYRLPNVHGRSYGPAPGAGHVQEESNLSLQALESRQDDILKRLYELKAAVDGLSKMIQTPDADLDVTNIIQADEPTTLTTNALDLNSVLGKDYGALKDIVINANPASPPLSLLVLHRLLCEHFRVLSTVHTHSSVKSVPENLLKCFGEQNKKQPRQDYQLGFTLIWKNVPKTQMKFSIQTMCPIEGEGNIARFLFSLFGQKHNAVNATLIDSWVDIAIFQLKEGSSKEKAAVFRSMNSALGKSPWLAGNELTVADVVLWSVLQQIGGCSVTVPANVQRWMRSCENLAPFNTALKLLK
notes: also called His-tagged p38
Question: Which Kd [2] does the source give for B2 here?
Answer: 0.5 nM
